Laboratory results taken from US20190040143A1 (AstraZeneca / MedImmune, published 2019).

B1: Clone 16 antibody (CL16), parental IgG1 (antibody, V domains shown)
VH: EVQLLESGGGLVQPGGSLRLSCAASGFTFSYYYMQWVRQAPGKGLEWVSYIGSSGGVTNYADSVKGRFTISRDNSKNTLYLQMNSLRAEDTAVYYCARVGLGDAFDIWGQGTMVTVSS
VL: QYELTQPPSASGTPGQRVTMSCSGSSSNIGLNYVSWYQQLPGTAPKLLISRNNQRPSGVPDRFSGSKSGTSASLAISGLRSEDEADYYCAAWDDSLSGEVFGGGTKLTVL
notes: also called Clone 16-PA; parental Clone 16 monoclonal antibody
B2: 2C2 monoclonal antibody (IgG1) (antibody, V domains shown)
VH: EVQLLESGGGLVQPGGSLRLSCAASGFTFSYYYMQWVRQAPGKGLEWVSYIGSSGGVTNYADSVKGRFTISRDNSKNTLYLQMNSLRAEDTAVYYCARVGLGDAFDIWGQGTMVTVSS
VL: QSVLTQPPSASGTPGQRVTISCSGSLSNIGLNYVSWYQQLPGTAPKLLISRNNQRPSGVPDRFSGSKSGTSASLAISGLRSEDEADYYCAAWDDSPPGEAFGGGTKLTVL

What was measured:
[1] = biological target: T1, recombinant HER3 (Cat. No. 348-RB, R&D Systems) (UniProt P21860 20-643); assay: HRG-HER3 binding ELISA: HRGb1 coated, antibody dilutions premixed with 5 ug/ml recombinant His-tagged HER3, bound HER3 detected with anti-His HRP; blocked ligand HRG
T1 construct: Detected through a His tag; also called labeled recombinant HER3 protein

[2] = biological target: human HER3 on human cancer cell lines (human, UniProt P21860 20-1342); assay: cell-based or functional assay

Row | Binder | IC50 (read off the curve) [1] | potency by IC50 in HRGβ1-induced pHER3 ELISA, MCF-7 cells, against MM and AMG [2]
1 | B1 | ~0.7 µg/mL | 
2 | B2 |  | ~5 fold
